Two molecules from patent publication US20050191301A1 (Janssen / Centocor, published 2005) can be followed below.

Ends that are not written are not given here.

For experiment [1], the target named is EPO receptor (on UT-7/EPO cells) (human) (UniProt P19235). Description: cell-based or functional assay.
The target of experiment [2] is T1, EPO receptor (on UT-7/EPO cells) (human, UniProt P19235 25-508).
T1 sequence (looked up): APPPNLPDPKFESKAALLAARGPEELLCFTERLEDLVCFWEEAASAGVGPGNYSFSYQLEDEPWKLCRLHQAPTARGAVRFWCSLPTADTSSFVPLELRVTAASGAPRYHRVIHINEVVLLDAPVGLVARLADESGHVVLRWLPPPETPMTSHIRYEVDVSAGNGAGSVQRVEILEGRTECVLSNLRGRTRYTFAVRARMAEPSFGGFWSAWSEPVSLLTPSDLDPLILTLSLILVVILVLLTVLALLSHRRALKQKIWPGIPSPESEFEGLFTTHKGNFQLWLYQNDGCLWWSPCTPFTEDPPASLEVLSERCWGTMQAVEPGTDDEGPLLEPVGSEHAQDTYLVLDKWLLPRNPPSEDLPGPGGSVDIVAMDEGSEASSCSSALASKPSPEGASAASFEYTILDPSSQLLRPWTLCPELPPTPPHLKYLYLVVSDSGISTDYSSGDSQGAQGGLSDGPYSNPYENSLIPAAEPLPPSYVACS
Description: cell-based or functional assay.

In turn, “recombinant human erythropoietin (rHuEPO) (from UniProt P01588 28-192) (ligand)” came in with an EC50 in the UT7 in vitro bioactivity assay, relative to its historical average in experiment [1] of 3 fold. In the case of GGTYSCHFGPLTWVCKPQGG (ends and bridges not checked; cysteine pairing not given here) [EMP-1 (EPO mimetic peptide-1)], the “EC50 in the UT-7/EPO in vitro bioactivity assay, relative to its historical average” value in experiment [2] came to 2 fold.
